Test results from the supplement of paper PMC10567573.

B1: TEKT4 (parent)
chain: YARYHQAFADRDQSERQRHESQQL

Variants of: B1
Experiment: protein stability index of a GFP-peptide fusion (GPS, HEK-293T) (PSI 1-6); higher = more stable
Conditions: c terminus: a fixed tail appended
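Also: lentivirally expressed fusions sorted by FACS into six bins by GFP to DsRed ratio, PSI derived from sequencing read proportions per bin multiplied by bin number.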

In order of rising protein stability index:
1. E15Y  1.09
2. E15M  1.31
3. F8W  1.4
4. D12A  1.43
5. H5G  1.44
6. D12R  1.44
7. S14C  1.46
8. H19F  1.48
9. S14F  1.48
10. E15I  1.52
11. E20Q  1.53
12. E20I  1.57
13. D12P  1.57
14. Y4W  1.6
15. R3P  1.6
16. E15W  1.61
17. H19Y  1.61
18. Q6A  1.62
19. S14R  1.63
20. Q17E  1.63
21. E20L  1.64
22. R11Y  1.64
23. Q13M  1.64
24. H19L  1.65
25. A9C  1.67
26. D12S  1.67
27. D12K  1.67
28. Q17N  1.68
29. A7Y  1.69
30. D12M  1.7
31. S14W  1.71
32. Q13W  1.72
33. E15K  1.73
34. Q17M  1.73
35. E20M  1.74
36. Q13E  1.74
37. E15H  1.75
38. E15S  1.76
39. E20F  1.76
40. Q6S  1.77
41. E15R  1.78
42. R18M  1.78
43. S14M  1.79
44. Q13T  1.79
45. E15P  1.8
46. D10A  1.8
47. S14G  1.8
48. A7I  1.81
49. E15V  1.83
50. Q13F  1.83
51. D10T  1.85
52. Q13Y  1.85
53. D12F  1.85
54. D12Y  1.86
55. E15A  1.87
56. Q17G  1.87
57. Q17S  1.87
58. S14A  1.88
59. Q13R  1.88
60. R16M  1.89
61. E15G  1.9
62. R18A  1.9
63. Q17H  1.9
64. H5A  1.91
65. R16Y  1.91
66. Q13K  1.91
67. R16K  1.93
68. D12N  1.93
69. H19W  1.94
70. Q17R  1.94
71. Q13A  1.96
72. E15Q  1.97
73. D10M  1.97
74. H19T  1.97
75. R3G  1.98
76. R11L  1.98
77. D12L  1.98
78. R11F  1.99
79. D10F  1.99
80. S14H  1.99
81. Q13V  1.99
82. R16S  2
83. Q17T  2
84. Q17A  2
85. E20C  2.01
86. R18W  2.01
87. R18N  2.01
88. D12E  2.01
89. A7W  2.02
90. Q6L  2.02
91. Q6C  2.02
92. H19R  2.05
93. A7V  2.06
94. E20K  2.06
95. R3E  2.06
96. D12V  2.06
97. E15T  2.07
98. R16W  2.07
99. S14Y  2.07
100. Q17C  2.07
101. H19N  2.08
102. R16P  2.08
103. Q13G  2.08
104. D12G  2.08
105. Q6W  2.08
106. E15D  2.1
107. R11I  2.1
108. H19A  2.11
109. Q17P  2.11
110. Y4F  2.12
111. R11V  2.12
112. R11T  2.12
113. D12T  2.12
114. E20R  2.13
115. S14Q  2.13
116. Q13C  2.13
117. Q17K  2.13
118. R11C  2.14
119. R18I  2.15
120. D12H  2.15
121. H5S  2.16
122. S14I  2.16
123. D10Q  2.17
124. D12C  2.17
125. E15L  2.18
126. E20N  2.18
127. R18L  2.18
128. E20G  2.19
129. D10H  2.19
130. H19E  2.19
131. Q13H  2.19
132. A7H  2.2
133. R3W  2.2
134. R16I  2.2
135. R18E  2.2
136. A9M  2.21
137. R16Q  2.21
138. S14N  2.21
139. Q17D  2.21
140. E20H  2.22
141. S14K  2.22
142. Q13N  2.22
143. Q17W  2.22
144. E20P  2.23
145. R18F  2.23
146. R18Q  2.24
147. Q6I  2.24
148. H19D  2.25
149. H19S  2.25
150. Q6H  2.25
151. D10Y  2.26
152. R16T  2.26
153. R18P  2.26
154. R18K  2.26
155. Q6R  2.26
156. R16H  2.28
157. Q6N  2.28
158. D10L  2.29
159. H5N  2.3
160. E20S  2.3
161. R3K  2.3
162. H19V  2.31
163. S14V  2.31
164. R18V  2.31
165. Q17V  2.31
166. D12Q  2.31
167. Q6K  2.31
168. R11H  2.32
169. D10V  2.32
170. Q17L  2.32
171. Q6M  2.32
172. D10N  2.33
173. Q17I  2.34
174. Q6T  2.34
175. E15N  2.35
176. A9R  2.35
177. H19M  2.35
178. R16A  2.35
179. R16V  2.35
180. Q13I  2.35
181. Q13D  2.35
182. E15C  2.36
183. Y4H  2.36
184. E20D  2.36
185. R3S  2.36
186. D10C  2.36
187. R18D  2.36
188. Q13P  2.36
189. D10G  2.37
190. S14T  2.37
191. R3F  2.38
192. H5C  2.39
193. Y4C  2.39
194. D10W  2.39
195. H19C  2.39
196. R11A  2.4
197. R16D  2.4
198. R16N  2.4
199. R16E  2.43
200. R18T  2.45
201. R11K  2.46
202. A9S  2.48
203. R16G  2.48
204. D10S  2.49
205. Q13L  2.49
206. Q13S  2.49
207. H5F  2.5
208. E20A  2.51
209. H19Q  2.51
210. H19P  2.51
211. H19I  2.53
212. R11M  2.54
213. Q6Y  2.54
214. Q17F  2.56
215. R3Q  2.57
216. A9F  2.58
217. D10I  2.58
218. D12I  2.58
219. S14E  2.59
220. R18S  2.59
221. H5Y  2.6
222. A9G  2.6
223. R3M  2.6
224. R18C  2.6
225. Q6E  2.62
226. H19K  2.63
227. R16C  2.63
228. R3H  2.64
229. R11S  2.64
230. H19G  2.64
231. Q6G  2.64
232. Q6V  2.69
233. Q6P  2.69
234. S14L  2.72
235. Q17Y  2.72
236. Q6D  2.73
237. E15F  2.76
238. S14D  2.76
239. D10R  2.77
240. R3N  2.79
241. R3T  2.79
242. Y4T  2.8
243. R16F  2.81
244. R18H  2.81
245. R11G  2.82
246. R18Y  2.82
247. R11N  2.83
248. R3C  2.84
249. R3A  2.85
250. H5V  2.87
251. H5K  2.88
252. A7C  2.88
253. R3Y  2.88
254. A9Y  2.89
255. Y4L  2.92
256. F8Y  2.95
257. R3L  2.97
258. H5Q  2.98
259. H5P  2.98
260. A9Q  2.98
261. Y4N  2.99
262. A7F  2.99
263. D12W  2.99
264. H5R  3
265. R3D  3
266. A7Q  3.03
267. R11P  3.03
268. D10K  3.05
269. Q6F  3.06
270. A7N  3.07
271. R11Q  3.07
272. Y4G  3.08
273. A9N  3.09
274. R16L  3.1
275. R3V  3.11
276. A9I  3.12
277. A7G  3.18
278. H5W  3.19
279. A7S  3.2
280. S14P  3.2
281. Y4M  3.21
282. A9H  3.21
283. A7K  3.25
284. Y4A  3.28
285. H5I  3.29
286. R11E  3.29
287. A9K  3.3
288. A7L  3.3
289. Y4I  3.32
290. A9V  3.35
291. A9T  3.36
292. R3I  3.4
293. H5M  3.43
294. Y4S  3.44
295. Y4D  3.46
296. H5L  3.47
297. A7T  3.48
298. A9L  3.49
299. A7R  3.5
300. Y4V  3.51
301. R18G  3.52
302. A7P  3.56
303. A9E  3.57
304. A2Y  3.58
305. R11D  3.59
306. H5T  3.6
307. F8T  3.66
308. A7D  3.7
309. A7E  3.72
310. F8R  3.73
311. Y4K  3.78
312. Y4R  3.81
313. F8G  3.83
314. Y4Q  3.85
315. A9D  3.86
316. F8S  3.86
317. A9P  3.9
318. F8V  3.92
319. F8M  3.92
320. F8C  3.97
321. Y4P  4
322. F8Q  4
323. F8K  4.01
324. Y4E  4.1
325. F8E  4.14
326. F8I  4.31
327. H5E  4.54
328. H5D  4.57
329. F8H  4.58
330. F8N  4.61
331. F8D  4.63
332. F8L  4.72
333. F8P  4.75
334. F8A  4.75
